How the values were obtained:
Assay in all cases: anti-His co-IP of rCHI3L1 from Kupffer cell lysate, MS; listed under 'proteins bound to CHI3L1'
[1] = biological target: T1, Q546G4_MOUSE (mouse, UniProt Q546G4 25-608)
T1 construct: also called sp|Q546G4|Q546G4_MOUSE
Protocol: (§1) CHI3L1 interacts with CD44 on KCs. To further understand how CHI3L1 mediates the function of KCs to recruit platelets, the inventors set out to identify its receptor on KCs. They isolated KCs from WT mice treated with APAP for 3 h and incubated the cells with His-tagged rCHI3L1. The cell lysate was subjected to immunoprecipitation using an anti-His antibody. The “pulled down” fraction was subjected to LC/MS analyses. A partial list of proteins identified, including CHI3L1 itself, is shown in (Extended Data Table 1). Because CD44 is a cell membrane protein, the inventors decided to investigate it is a receptor for CHI3L1. They performed/immunoprecipitation experiments using liver homogenates obtained from WT and CD44^{-/-} mice after APAP treatment. […] Moreover, the inventors incubated rhCHI3L1 with human CD44 and then immunoprecipitated with an anti-CD44 antibody. The data confirmed a direct binding between CHI3L1 and CD44 (FIG. 3C). Consistent with the notion that many cell types express CD44, they detected CD44 express on various hepatic non-parenchymal cells (NPCs) except B cells and DCs (summarized in Extended Data Table 2). However, when they incubated liver NPCs with His-tagged rCHI3L1, the inventors observed that the only CD44-expressing cells that could bind to CHI3L1 were KCs (FIG. 3D).

[2] = biological target: T2, Q3UA81_MOUSE (mouse, UniProt Q3UA81 2-462)
T2 construct: also called tr|Q3UA81|Q3UA81_MOUSE
T2 sequence: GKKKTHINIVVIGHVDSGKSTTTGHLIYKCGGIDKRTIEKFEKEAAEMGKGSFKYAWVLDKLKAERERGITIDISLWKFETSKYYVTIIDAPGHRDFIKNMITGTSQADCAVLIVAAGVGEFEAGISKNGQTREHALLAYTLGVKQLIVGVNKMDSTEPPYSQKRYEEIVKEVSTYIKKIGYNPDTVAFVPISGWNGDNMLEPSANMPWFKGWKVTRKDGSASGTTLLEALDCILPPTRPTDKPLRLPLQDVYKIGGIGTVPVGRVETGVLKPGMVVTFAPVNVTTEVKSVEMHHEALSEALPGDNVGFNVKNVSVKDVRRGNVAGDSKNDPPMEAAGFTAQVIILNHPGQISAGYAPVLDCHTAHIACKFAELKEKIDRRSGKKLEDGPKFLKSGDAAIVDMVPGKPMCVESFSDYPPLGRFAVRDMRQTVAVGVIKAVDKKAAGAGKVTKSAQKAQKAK
Protocol: as §1

[3] = biological target: T3, D3Z041_MOUSE (mouse, UniProt D3Z041 1-699)
T3 construct: also called tr|D3Z041|D3Z041_MOUSE
T3 sequence: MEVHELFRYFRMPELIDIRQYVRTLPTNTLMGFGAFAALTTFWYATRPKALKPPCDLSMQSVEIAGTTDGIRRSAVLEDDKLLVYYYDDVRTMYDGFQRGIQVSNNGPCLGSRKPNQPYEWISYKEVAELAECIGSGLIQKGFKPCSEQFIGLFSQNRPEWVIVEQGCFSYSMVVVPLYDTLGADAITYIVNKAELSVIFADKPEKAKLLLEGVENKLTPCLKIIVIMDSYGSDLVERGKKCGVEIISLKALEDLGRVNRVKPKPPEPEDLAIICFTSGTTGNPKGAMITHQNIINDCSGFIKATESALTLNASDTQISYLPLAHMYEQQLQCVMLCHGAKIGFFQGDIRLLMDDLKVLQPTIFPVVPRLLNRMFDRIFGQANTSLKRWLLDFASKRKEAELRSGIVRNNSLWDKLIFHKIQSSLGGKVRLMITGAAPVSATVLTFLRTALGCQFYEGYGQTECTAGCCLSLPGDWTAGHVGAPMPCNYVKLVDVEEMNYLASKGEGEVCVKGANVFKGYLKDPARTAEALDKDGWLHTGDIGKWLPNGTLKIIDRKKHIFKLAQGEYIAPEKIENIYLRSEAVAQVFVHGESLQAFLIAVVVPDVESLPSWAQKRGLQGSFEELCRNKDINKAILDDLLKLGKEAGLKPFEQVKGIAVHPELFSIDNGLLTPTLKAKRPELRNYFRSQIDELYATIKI
Protocol: as §1

Measured: binding result

B1: recombinant mouse CHI3L1 (ligand)
chain: not shown
notes: His-tagged; also called mCHI3L1; mChi3l1
binds: [1] | [2] | [3]
